Source: IntAct's records for PubMed 19855379

B1: Abscisic acid receptor PYL1 (Arabidopsis thaliana (Mouse-ear cress)), Q8VZS8 (parent)
chain: MANSESSSSPVNEEENSQRISTLHHQTMPSDLTQDEFTQLSQSIAEFHTYQLGNGRCSSLLAQRIHAPPETVWSVVRRFDRPQIYKHFIKSCNVSEDFEMRVGCTRDVNVISGLPANTSRERLDLLDDDRRVTGFSITGGEHRLRNYKSVTTVHRFEKEEEEERIWTVVLESYVVDVPEGNSEEDTRLFADTVIRLNLQKLASITEAMNRNNNNNNSSQVR
B2: Protein phosphatase 2C 56 (Arabidopsis thaliana (Mouse-ear cress)), P49597 (parent)
chain: MEEVSPAIAGPFRPFSETQMDFTGIRLGKGYCNNQYSNQDSENGDLMVSLPETSSCSVSGSHGSESRKVLISRINSPNLNMKESAAADIVVVDISAGDEINGSDITSEKKMISRTESRSLFEFKSVPLYGFTSICGRRPEMEDAVSTIPRFLQSSSGSMLDGRFDPQSAAHFFGVYDGHGGSQVANYCRERMHLALAEEIAKEKPMLCDGDTWLEKWKKALFNSFLRVDSEIESVAPETVGSTSVVAVVFPSHIFVANCGDSRAVLCRGKTALPLSVDHKPDREDEAARIEAAGGKVIQWNGARVFGVLAMSRSIGDRYLKPSIIPDPEVTAVKRVKEDDCLILASDGVWDVMTDEEACEMARKRILLWHKKNAVAGDASLLADERRKEGKDPAAMSAAEYLSKLAIQRGSKDNISVVVVDLKPRRKLKSKPLN

Variants of: B1
Conditions: with ABI1, P49597

| Variant | effect of a mutation on the interaction |
| --- | --- |
| L144A | disrupting interaction |
| F189A | decreasing interaction |
| H142A | disrupting interaction |
| R143A | decreasing interaction |

Variants of: B2
Conditions: with pyl1_arath PYL1, Q8VZS8

| Variant | effect of a mutation on the interaction |
| --- | --- |
| E142A | decreasing interaction |
| I298A | disrupting interaction |
| R304A | disrupting interaction |
| W300A | disrupting interaction |
| Y319A | decreasing interaction |
